Laboratory results: patent US20140322218A1 (Amgen, published 2014)
Changes are numbered by the printed parent chain. Names and notes keep the numbering of the source.

T1: ckCDH19(1-43)::FLAG::ckCDH19(44-776), on 293T cells (chicken)
T1 construct: Entry holds leader (1-43), Flag tag and CDH19 part; leader left out; also called Ck EC1-5
T1 chain: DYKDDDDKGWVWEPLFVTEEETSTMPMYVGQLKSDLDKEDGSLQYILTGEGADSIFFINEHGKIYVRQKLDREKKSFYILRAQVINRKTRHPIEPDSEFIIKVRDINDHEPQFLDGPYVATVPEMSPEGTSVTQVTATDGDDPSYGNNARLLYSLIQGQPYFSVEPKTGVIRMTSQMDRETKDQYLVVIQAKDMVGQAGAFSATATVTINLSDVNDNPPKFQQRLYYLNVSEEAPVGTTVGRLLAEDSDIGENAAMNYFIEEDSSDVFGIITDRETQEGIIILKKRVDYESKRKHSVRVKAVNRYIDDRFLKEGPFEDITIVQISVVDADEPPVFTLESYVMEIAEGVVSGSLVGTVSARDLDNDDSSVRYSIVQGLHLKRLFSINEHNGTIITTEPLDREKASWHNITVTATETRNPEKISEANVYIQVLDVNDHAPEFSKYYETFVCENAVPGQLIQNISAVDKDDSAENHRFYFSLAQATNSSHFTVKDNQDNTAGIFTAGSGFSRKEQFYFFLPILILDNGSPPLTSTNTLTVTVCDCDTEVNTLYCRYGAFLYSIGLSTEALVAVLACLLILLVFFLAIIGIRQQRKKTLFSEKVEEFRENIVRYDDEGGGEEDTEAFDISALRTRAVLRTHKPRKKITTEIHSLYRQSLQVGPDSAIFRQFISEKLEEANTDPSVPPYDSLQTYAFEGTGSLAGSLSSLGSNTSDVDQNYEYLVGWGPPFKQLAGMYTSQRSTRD

T2: (1-43)::FLAG::ckCDH19(44-468)::huCDH19(464-772), on 293T cells (human/chicken chimera)
T2 construct: Entry holds leader (1-43), Flag tag and CDH19 part; leader left out; also called Hu EC5 (chicken backbone)
T2 chain: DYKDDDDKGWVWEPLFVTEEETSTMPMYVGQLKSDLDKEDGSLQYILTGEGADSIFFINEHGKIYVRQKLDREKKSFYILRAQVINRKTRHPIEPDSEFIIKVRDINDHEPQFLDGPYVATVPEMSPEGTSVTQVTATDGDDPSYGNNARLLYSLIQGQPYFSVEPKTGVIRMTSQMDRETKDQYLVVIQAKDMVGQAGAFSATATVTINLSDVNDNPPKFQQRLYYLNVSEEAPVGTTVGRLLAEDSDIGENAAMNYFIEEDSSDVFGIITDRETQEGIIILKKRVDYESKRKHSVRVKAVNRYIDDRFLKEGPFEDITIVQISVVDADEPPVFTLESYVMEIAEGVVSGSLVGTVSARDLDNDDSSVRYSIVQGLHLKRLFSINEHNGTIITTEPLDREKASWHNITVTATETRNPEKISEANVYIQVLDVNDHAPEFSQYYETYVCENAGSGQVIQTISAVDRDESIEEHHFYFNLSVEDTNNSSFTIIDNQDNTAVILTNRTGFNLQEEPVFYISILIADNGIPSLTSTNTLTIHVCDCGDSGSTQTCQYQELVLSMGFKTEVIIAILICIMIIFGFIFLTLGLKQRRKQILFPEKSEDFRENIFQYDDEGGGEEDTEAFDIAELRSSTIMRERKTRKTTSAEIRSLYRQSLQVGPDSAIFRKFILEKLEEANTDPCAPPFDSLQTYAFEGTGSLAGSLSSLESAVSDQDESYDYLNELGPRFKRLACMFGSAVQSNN

T3: ckCDH19(1-43)::FLAG::ckCDH19(44-141)::huCDH19(142-249)::ckCDH19(250-776), on 293T cells (human/chicken chimera)
T3 construct: Entry holds leader (1-43), Flag tag and CDH19 part; leader left out; also called Hu EC2 (chicken backbone)
T3 chain: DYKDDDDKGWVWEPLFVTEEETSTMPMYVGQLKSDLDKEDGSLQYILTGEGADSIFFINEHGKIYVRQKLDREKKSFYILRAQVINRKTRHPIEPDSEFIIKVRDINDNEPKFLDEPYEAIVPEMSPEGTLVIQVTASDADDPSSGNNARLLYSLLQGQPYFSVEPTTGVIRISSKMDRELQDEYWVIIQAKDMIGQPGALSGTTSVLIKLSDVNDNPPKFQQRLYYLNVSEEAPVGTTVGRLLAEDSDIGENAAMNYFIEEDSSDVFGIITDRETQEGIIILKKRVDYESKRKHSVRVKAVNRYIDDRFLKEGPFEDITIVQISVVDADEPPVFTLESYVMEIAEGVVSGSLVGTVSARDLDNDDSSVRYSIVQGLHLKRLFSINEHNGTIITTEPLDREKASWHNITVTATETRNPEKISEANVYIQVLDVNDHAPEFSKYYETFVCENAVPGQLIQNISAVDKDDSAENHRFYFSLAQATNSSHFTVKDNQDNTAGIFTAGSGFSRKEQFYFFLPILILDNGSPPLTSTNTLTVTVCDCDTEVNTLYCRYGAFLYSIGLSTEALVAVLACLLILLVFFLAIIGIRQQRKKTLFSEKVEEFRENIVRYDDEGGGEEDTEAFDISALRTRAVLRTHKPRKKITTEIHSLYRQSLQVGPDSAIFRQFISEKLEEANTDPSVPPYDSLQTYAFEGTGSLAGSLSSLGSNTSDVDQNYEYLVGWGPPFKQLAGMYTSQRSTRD

B1: anti-CDH19 antibody 4A2 (Ab ID 13592) (antibody, human IgG1, kappa, V domains shown)
VH: QVQLQESGPGLVKPSQTLSLTCTVSGGSISSSGYYWSWIRQHPGKGLEWIGYIYYTGSAYYNPSLKSRVTISVDTSKNQFSLKLSSVTAADTAVYYCARDGSSGWYFQYWGQGTLVTVSS
VL: EIVLTQSPGTLSLSPGERATLSCRASRNISSSYLAWYQQKPGQAPRLLIYGPSSRATGIPDRFSGSGSGTDFTLTISRLEPEDFTVYYCQQYGSSFTFGPGTKVDIKR
B2: hu anti-<huCDH19> 4B10 VH::huIgG1z / 4B10 VL::huKLC (Ab ID 13590) (antibody, V domains shown)
VH: QVQLVESGGGVVQPGRSLRLSCAASGFTFSSYDMHWVRQAPGKGLEWVAVISYDGTNEYYADSVKGRFTISRDTSKNTLYLQMNSLRAEDTAVYYCARERYFDWSFDYWGQGTLVSVSS
VL: EIVLTQSPGTLSLSPGERATLSCRASQSVSNTYLAWYHQRPGQAPRLLIYGASSRATGIPDRFSGSGSGTDFALTISSLEPEDFAVYYCQQYSNSWTFGQGTKVEIKR
B3: hu anti-<huCDH19> 25F8.1 (1-469)(F90Y) VH::huIgG1z / 25F8.1 (1-235)(K45Q,S102A,D111E) VL::huLLC-C2 (Ab ID 14096) (antibody, V domains shown)
VH: QVQLVQSGAEVKKPGASVKVSCKASGYTFTSYYIHWVRQAPGQGLEWMGIINPSGGSTRYAQKFQGRVTMTRDTSTSTVYMELSSLRSEDTAVYYCARGGIQLWLHFDYWGQGTLVTVSS
VL: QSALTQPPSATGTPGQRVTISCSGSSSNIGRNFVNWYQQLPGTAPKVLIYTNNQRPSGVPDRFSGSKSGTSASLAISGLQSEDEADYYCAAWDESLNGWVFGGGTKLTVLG
notes: Engineered variant of 25F8
B4: hu anti-<huCDH19> 26D1.1 VH::huIgG1z / 26D1.1 VL::huLLC-C2 (Ab ID 13882) (antibody, V domains shown)
VH: B3 VH with G26R, I34M, H35S, N52H, S57D, R59T, R72G, Q102K
VL: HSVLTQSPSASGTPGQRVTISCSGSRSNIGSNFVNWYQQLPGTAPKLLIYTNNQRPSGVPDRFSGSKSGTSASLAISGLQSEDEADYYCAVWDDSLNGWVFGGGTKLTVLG
B5: hu anti-<huCDH19> 4A9 VH::huIgG1z / 4A9 VL::huLLC-C1 (Ab ID 13589) (antibody, V domains shown)
VH: QVQLQESGPGLVKPSETLSLTCTVSGGSISGYYWSWIRQPPGKGLEWFAYFSYSGSTNYNPSLKSRVTLSVDTSKNQFSLKLSSVTAADTAVYYCARNWAFHFDFWGQGTLVTVSS
VL: QSVLTQPPSVSGAPGQRVTISCTGSSSNIGTGYAVHWYQQFPGTAPKLLIYGNNNRPSGVPDRFSGSKSGTSASLAITGLQAEDEADYYCQSYDSRLSGWVFGGGTKLTVLG
notes: Recombinant fully human IgG1
B6: anti-CDH19 antibody 2G6 (Ab ID 13588) (antibody, human IgG1, lambda, V domains shown)
VH: QVQLVESGGGVVQPGRSLRLSCAASGFTFSSYGMHWVRQAPGKGLEWVAFIWYDGSNKYYADSVKDRFTISRDNSKNTLYLQMKSLRAEDTAVYYCARRAGIIGTIGYYYGMDVWGQGTTVTVSS
VL: SYELTQPPSVSVSPGQTASITCSGDRLGEKYTCWYQQRPGQSPLLVIYQDTKRPSGIPERFSGSNSGNTATLTISGTQAMDEADYYCQAWDSSTVVFGGGTKLTVLG
B7: hu anti-<huCDH19> 23A10.3 (1-474)(L92Q) VH::huIgG1z / 23A10.3 (1-231)(C42S) VL::huLLC-C2 (Ab ID 14077) (antibody, V domains shown)
VH: B6 VH with S31R, M34I, F50V, D66G, K84N, T91S, I103P, I106T
VL: B6 VL with T32V, C33S, R38K, L44I, T51N, R53W
notes: Engineered variant of 23A10

Biological target: T1, ckCDH19(1-43)::FLAG::ckCDH19(44-776), …
Experiment: FACS, transfected 293T;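 further: antibody binding to chimera-expressing cells with 2 mM CaCl2 present, cell-bound Alexa647-labelled antibody read by flow cytometry, mock-transfected cells serving as control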
Procedure: (§1) The following binding assay was completed in presence of 2 mM CaCl2. […] Cells were then washed one time and the amount of cell associated Alexa647-labelled Ab was quantitated by flow cytometry. The experiments included mock transfected controls.

binding result	Binder
no binding (tested: 5 ug/ml)	B1
no binding (tested: 5 ug/ml)	B2
no binding (tested: 5 ug/ml)	B3
no binding (tested: 5 ug/ml)	B4
no binding (tested: 5 ug/ml)	B5
no binding (tested: 5 ug/ml)	B6
no binding (tested: 5 ug/ml)	B7

These binders were tested against T4, ckCDH19(1-43)::FLAG::ckCDH19(44-249)::huCDH19(250-364)::ckCDH19(365-776), on 293T cells (human/chicken chimera) (assay: FACS, transfected 293T;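 further: antibody binding to chimera-expressing cells with 2 mM CaCl2 present, cell-bound Alexa647-labelled antibody read by flow cytometry, mock-transfected cells serving as control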).
T4 construct: Entry holds leader (1-43), Flag tag and CDH19 part; leader left out; also called Hu EC3 (chicken backbone)
Procedure: as §1

binding result	Binder
binds	B2
no binding (tested: 5 ug/ml)	B3
no binding (tested: 5 ug/ml)	B4
no binding (tested: 5 ug/ml)	B5
binds	B6
binds	B7

Biological target: T2, (1-43)::FLAG::ckCDH19(44-468)::huCDH19(4 …)
Experiment: FACS, transfected 293T;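 further: antibody binding to chimera-expressing cells with 2 mM CaCl2 present, cell-bound Alexa647-labelled antibody read by flow cytometry, mock-transfected cells serving as control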
Procedure: as §1

binding result	Binder
no binding (tested: 5 ug/ml)	B1
no binding (tested: 5 ug/ml)	B2
no binding (tested: 5 ug/ml)	B3
no binding (tested: 5 ug/ml)	B4
no binding (tested: 5 ug/ml)	B5
no binding (tested: 5 ug/ml)	B6
no binding (tested: 5 ug/ml)	B7

Each binder was assayed against T5, huCDH19(1-43)::FLAG::hu(44-141)::ckCDH19(142-776), on 293T cells (human/chicken chimera) (assay: FACS, transfected 293T;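 further: antibody binding to chimera-expressing cells with 2 mM CaCl2 present, cell-bound Alexa647-labelled antibody read by flow cytometry, mock-transfected cells serving as control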).
T5 construct: Entry holds leader (1-43), Flag tag and CDH19 part; leader left out; also called Hu EC1 (chicken backbone)
Procedure: as §1

binding result	Binder
no binding (tested: 5 ug/ml)	B1
no binding (tested: 5 ug/ml)	B2
binds	B3
binds	B4
binds	B5
no binding (tested: 5 ug/ml)	B6
no binding (tested: 5 ug/ml)	B7

Biological target: T3, ckCDH19(1-43)::FLAG::ckCDH19(44-141)::hu …
Experiment: FACS, transfected 293T
Procedure: as §1

binding result	Binder
no binding (tested: 5 ug/ml)	B1
no binding (tested: 5 ug/ml)	B2
no binding (tested: 5 ug/ml)	B3
no binding (tested: 5 ug/ml)	B4
no binding (tested: 5 ug/ml)	B5
no binding (tested: 5 ug/ml)	B6
no binding (tested: 5 ug/ml)	B7

The binders below were run against T6, huCDH19(44-772), Flag-tagged, on 293T cells (human, UniProt Q9H159 44-772) (assay: FACS, transfected 293T).
T6 construct: Expressed with native leader (1-43) followed by a Flag tag; leader left out; also called Hu EC1-5
Procedure: as §1

binding result	Binder
binds	B2
binds	B3
binds	B4
binds	B5
binds	B6
binds	B7
